These results are taken from US20080274096A1, “Fusion Proteins Having a Modulated Half-Life in Plasma” (ASTRAZENECA AB, priority 2005, published 2008).

Data set [1] has as its system amyloid β1-40 peptide. As to the kind of experiment: Degradation of amyloid β1-40 peptide by soluble Neprilysin in a buffer system. Conditions: Neprilysin 1.8 μg/ml; Amyloid β1-40 peptide (1 nM); 3 hours incubation at 37° C. The data set is classed as biochemical. The protocol:
Following incubation, 50 μl of antibodies solution containing anti-Aβ40 (final concentration 0.125 μg/ml; Biosource) and Biotinylated 6E10 (final concentration 0.125 μg/ml; Signet) antibodies was added to each well. Plate was incubated at RT for 3 h. Following incubation, 50 μl of detection mixture of Dynabeads M280 (Dynal Biotech ASA) and secondary antibody Ru-GαR (final concentration 0.132 μg/ml) was added to all wells. Plate was incubated on a shaker at RT for 1 h and results were recorded on IGEN/Bio […]8 analyser. Amyloid β1-40 peptide degradation by Neprilysin was calculated as a percentage of Amyloid β1-40 peptide left after incubation in the presence of Neprilysin compared to the amyloid β1-40 peptide concentration in the absence of Neprilysin.

For data set [2], the system named is amyloid β peptide1-40 (Aβ40). As to the kind of experiment: Degradation of Aβ1-40 in guinea pig plasma by neprilysin. The class given is biochemical. The protocol: (§1) Degradation of amyloid β peptide1-40 (Aβ40) and amyloid β peptide1-42 (Aβ42) by neprilysin was investigated using heparinized plasma from male Dunkin Hartley guinea pigs, weighing 250-300 g (HBLidköping ka). Blood was withdrawn from anaesthetized guinea pigs by heart puncture. The blood were collected into prechilled heparin-plasma tubes and centrifuged for 10 min at 4° C. at 3000×g within 20 minutes of sampling. Plasma samples were transferred to pre-chilled polypropylene tubes and immediately frozen on dry ice and stored at −70° C. prior to use. The experiments were performed on a pool of plasma from 5-6 guinea pigs. […] A final concentration of 4.7 mM EDTA was added into the tubes before the amount of Aβ1-40 or Aβ1-42 was analyzed by using commercial ELISA kits obtained from Biosource (Aβ1-40) or Innogenetics (Aβ1-42).

For data set [3], the system named is amyloid β peptide1-42 (Aβ42). As to the kind of experiment: Degradation of Aβ1-42 in guinea pig plasma by neprilysin. The data set is classed as biochemical. The note with it: 5 μg/ml neprilysin, 0-360 minutes at 37° C. The protocol:
as §1

Data set [4] deals with fluorogenic peptide substrate V-Mca-Arg-Pro-Gly-Phe-Ser-Ala-Phe-Lys(Dnp)-OH. As to the kind of experiment: Neprilysin enzyme activity FRET assay. The data set is classed as biochemical. Conditions: purification with addition of 200 μM ZnCl2 versus without. The protocol:
Neprilysin is affinity purified directly from the culture supernatants. Soluble Neprilysin is purified using biotinylated anti-neprilysin antibody (R&D Systems) bound to […] sepharose (GE Healthcare). 14 μg biotinylated anti-neprilysin antibody (R&D systems) was added to 140 μl streptavidin sepharose slurry (GE Healthcare) and incubated during gentle mixing for 2 hours, in room temperature. The sepharose was washed twice and resuspended in 140 μl PBS. The sepharose slurry with bound anti-neprilysin antibody, was added to 10 ml culture supernatant and the sample was incubated for 5 hours at 4° C. After incubation, the sepharose was washed once with PBS and resuspended in 1200 μl 50 mM Tris-HCl, pH 7.5, 150 mM NaCl. […] The sepharose was pelleted and the concentration of purified protein in the supernatant was measured by absorbance at 280 nm. […] The Neprilysin enzymatic activity is determined in a fluorescence resonance energy transfer (FRET) assay. […] Following addition of all components to wells, plate was immediately placed into a fluorescent plate reader (Ascent) and signal was recorded for every minute for 20 minutes at the excitation 340 nm and emission 405 nm. The activity of enzyme was evaluated by calculating the velocity of reaction-Slope coefficient=Σ ΔRFU/Δt. […]

Data set [5] relates to amyloid β peptide. The data set is described as follows: Two-compartment membrane experiment, degradation of amyloid β peptide. The class given is biochemical. The note with it: degradation in one compartment connected through a membrane. The protocol:
An experiment is performed to investigate the possibility to remove amyloid β peptide from one compartment by degradation in another compartment connected through a membrane. A similar experiment was conducted using an antibody as an amyloid β peptide agent. The experiment is described by DeMattos et al., (PNAS, 2001). By degrading the amyloid β peptide with neprilysin and/or NEP-Fc in one compartment the concentration of amyloid β peptide in the other compartment is decreased. Importantly, neprilysin or NEP-Fc cannot cross the membrane due to its high molecular weight (161.000 Da and 211.000 Da, respectively).

In data set [6] the test system is Ab1-42. The note with it: purified Neprilysin; Howell et al., 1995; cited from earlier work.

B1: Neprilysin: Aβ-degrading Zn-metallopeptidase; soluble extracellular domain (SEQ ID NO 1-4), commercial (R&D Systems) or produced in-house (protein, UniProt P08473 52-750, looked up)
extracellular domain: YDDGICKSSDCIKSAARLIQNMDATTEPCTDFFKYACGGWLKRNVIPETSSRYGNFDILRDELEVVLKDVLQEPKTEDIVAVQKAKALYRSCINESAIDSRGGEPLLKLLPDIYGWPVATENWEQKYGASWTAEKAIAQLNSKYGKKVLINLFVGTDDKNSVNHVIHIDQPRLGLPSRDYYECTGIYKEACTAYVDFMISVARLIRQEERLPIDENQLALEMNKVMELEKEIANATAKPEDRNDPMLLYNKMTLAQIQNNFSLEINGKPFSWLNFTNEIMSTVNISITNEEDVVVYAPEYLTKLKPILTKYSARDLQNLMSWRFIMDLVSSLSRTYKESRNAFRKALYGTTSETATWRRCANYVNGNMENAVGRLYVEAAFAGESKHVVEDLIAQIREVFIQTLDDLTWMDAETKKRAEEKALAIKERIGYPDDIVSNDNKLNNEYLELNYKEDEYFENIIQNLKFSQSKQLKKLREKVDKDEWISGAAVVNAFYSSGRNQIVFPAGILQPPFFSAQQSNSLNYGGIGMVIGHEITHGFDDNGRNFNKDGDLVDWWTQQSASNFKEQSQCMVYQYGNFSWDLAGGQHLNGINTLGENIADNGGLGQAYRAYQNYIKKNGEEKLLPGLDLNHKQLFFLNFAQVWCGTYRPEYAVNSIKTDVHSPGNFRIIGTLQNSAEFSEAFHCRKNSYMNPEKKCRVW
modifications: extracellular domain
Take B1: the “Amyloid β1-40 peptide degraded” value in data set [1] came to 88%. The “Degradation of Aβ1-40 versus dose” value in data set [2] (0-20 μg/ml neprilysin, 210 minutes at 37° C.) is listed as “dose dependent manner”. For the same molecule, in data set [2] (5 μg/ml neprilysin, 0-360 minutes at 37° C.), the “Degradation of Aβ1-40 over time” value is “time-dependent manner”. For the same molecule, the “Degradation of Aβ1-42 over time” value in data set [3] is on record as “time-dependent manner”. In addition, in data set [4], the “Activity of purified protein with versus without added zinc” value is listed as “no difference in activity”. Further, the “Concentration of amyloid β peptide in the other compartment” value in data set [5] is recorded as “decreased”. In data set [6], the “Sites at which amyloid β peptide is cleaved in vitro” value is given as “five sites”.
